From article PMC10992996

target: Human canonical CRB2 (Crumbs homolog 2), Q5IJ48-1; assay: co-IP (FLAG-IP) and Western blot quantification; settings: chain shown with the change; co-transfected in HEK293T cells; three biological replicates; parent: est. 1.0; read off a plot
Sequence (Q5IJ48 29-1285): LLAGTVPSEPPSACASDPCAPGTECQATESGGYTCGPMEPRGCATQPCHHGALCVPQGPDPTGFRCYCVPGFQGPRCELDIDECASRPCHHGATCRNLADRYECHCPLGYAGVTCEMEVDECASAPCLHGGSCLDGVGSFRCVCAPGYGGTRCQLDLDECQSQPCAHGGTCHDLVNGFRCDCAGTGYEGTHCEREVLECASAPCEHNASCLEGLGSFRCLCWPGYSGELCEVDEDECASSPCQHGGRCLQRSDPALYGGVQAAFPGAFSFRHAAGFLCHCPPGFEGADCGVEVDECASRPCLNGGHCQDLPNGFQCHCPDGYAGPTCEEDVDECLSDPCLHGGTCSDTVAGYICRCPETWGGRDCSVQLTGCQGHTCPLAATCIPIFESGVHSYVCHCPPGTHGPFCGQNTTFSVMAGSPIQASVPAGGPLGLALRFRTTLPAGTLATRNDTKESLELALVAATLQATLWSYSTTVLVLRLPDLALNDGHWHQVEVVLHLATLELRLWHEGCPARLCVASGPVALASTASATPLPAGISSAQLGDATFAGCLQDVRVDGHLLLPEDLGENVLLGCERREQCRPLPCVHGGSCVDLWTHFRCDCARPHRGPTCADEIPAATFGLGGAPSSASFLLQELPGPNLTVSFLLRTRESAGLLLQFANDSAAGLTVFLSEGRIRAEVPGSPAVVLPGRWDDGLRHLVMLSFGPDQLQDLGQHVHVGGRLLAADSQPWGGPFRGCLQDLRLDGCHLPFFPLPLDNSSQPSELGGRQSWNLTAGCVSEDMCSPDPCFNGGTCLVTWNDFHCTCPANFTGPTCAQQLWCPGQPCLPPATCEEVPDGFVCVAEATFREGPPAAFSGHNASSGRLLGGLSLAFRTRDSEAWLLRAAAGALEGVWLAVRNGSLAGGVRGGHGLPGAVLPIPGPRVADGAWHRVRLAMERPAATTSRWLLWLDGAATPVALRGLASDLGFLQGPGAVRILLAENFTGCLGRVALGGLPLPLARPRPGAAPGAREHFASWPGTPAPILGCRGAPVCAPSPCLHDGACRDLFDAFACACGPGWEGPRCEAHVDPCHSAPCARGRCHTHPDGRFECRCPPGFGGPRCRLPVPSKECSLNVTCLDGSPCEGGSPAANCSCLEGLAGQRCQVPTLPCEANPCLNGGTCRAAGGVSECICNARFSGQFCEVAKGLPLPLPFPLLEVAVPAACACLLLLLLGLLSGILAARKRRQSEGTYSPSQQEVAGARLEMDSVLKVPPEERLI

| ratio to parent | Binder |
| --- | --- |
| 1.1 | Human canonical CRB1 (Crumbs homolog 1), P82279 p.C681Y (protein) FCNKNNTRCLSNSCQNNSTCKDFSKDNDCSCSDTANNLDKDCDNMKDPCFSNPCQGSATCVNTPGERSFLCKCPPGYSGTICETTIGSCGKNSCQHGGICHQDPIYPVCICPAGYAGRFCEIDHDECASSPCQNGAVCQDGIDGYSCFCVPGYQGRHCDLEVDECASDPCKNEATCLNEIGRYTCICPHNYSGVNCELEIDECWSQPCLNGATCQDALGAYFCDCAPGFLGDHCELNTDECASQPCLHGGLCVDGENRYSCNCTGSGFTGTHCETLMPLCWSKPCHNNATCEDSVDNYTCHCWPGYTGAQCEIDLNECNSNPCQSNGECVELSSEKQYGRITGLPSSFSYHEASGYVCICQPGFTGIHCEEDVNECSSNPCQNGGTCENLPGNYTCHCPFDNLSRTFYGGRDCSDILLGCTHQQCLNNGTCIPHFQDGQHGFSCLCPSGYTGSLCEIATTLSFEGDGFLWVKSGSVTTKGSVCNIALRFQTVQPMALLLFRSNRDVFVKLELLSGYIHLSIQVNNQSKVLLFISHNTSDGEWHFVEVIFAEAVTLTLIDDSCKEKCIAKAPTPLESDQSICAFQNSFLGGLPVGMTSNGVALLNFYNMPSTPSFVGCLQDIKIDWNHITLENISSGSSLNVKAGCVRKDWCESQPYQSRGRCINLWLSYQCDCHRPYEGPNCLREYVAGRFGQDDSTGYVIFTLDESYGDTISLSMFVRTLQPSGLLLALENSTYQYIRVWLERGRLAMLTPNSPKLVVKFVLNDGNVHLISLKIKPYKIELYQSSQNLGFISASTWKIEKGDVIYIGGLPDKQETELNGGFFKGCIQDVRLNNQNLEFFPNPTNNASLNPVLVNVTQGCAGDNSCKSNPCHNGGVCHSRWDDFSCSCPALTSGKACEEVQWCGFSPCPHGAQCQPVLQGFECIANAVFNGQSGQILFRSNGNITRELTNITFGFRTRDANVIILHAEKEPEFLNISIQDSRLFFQLQSGNSFYMLSLTSLQSVNDGTWHEVTLSMTDPLSQTSRWQMEVDNETPFVTSTIATGSLNFLKDNTDIYVGDRAIDNIKGLQGCLSTIEIGGIYLSYFENVHGFINKPQEEQFLKISTNSVVTGCLQLNVCNSNPCLHGGNCEDIYSSYHCSCPLGWSGKHCELNIDECFSNPCIHGNCSDRVAAYHCTCEPGYTGVNCEVDIDNCQSHQCANGATCISHTNGYSCLCFGNFTGKFCRQSRLPSTVCGNEKTNLTCYNGGNCTEFQTELKCMCRPGFTGEWCEKDIDECASDPCVNGGLCQDLLNKFQCLCDVAFAGERCEVDLADDLISDIFTTIGSVTVALLLILLLAIVASVVTSNKRATQGTYSPSRQEKEGSRVEMWNLMPPPAMERLI |
| 1 | Human canonical CRB1 (Crumbs homolog 1), P82279 p.C1321S (protein) FCNKNNTRCLSNSCQNNSTCKDFSKDNDCSCSDTANNLDKDCDNMKDPCFSNPCQGSATCVNTPGERSFLCKCPPGYSGTICETTIGSCGKNSCQHGGICHQDPIYPVCICPAGYAGRFCEIDHDECASSPCQNGAVCQDGIDGYSCFCVPGYQGRHCDLEVDECASDPCKNEATCLNEIGRYTCICPHNYSGVNCELEIDECWSQPCLNGATCQDALGAYFCDCAPGFLGDHCELNTDECASQPCLHGGLCVDGENRYSCNCTGSGFTGTHCETLMPLCWSKPCHNNATCEDSVDNYTCHCWPGYTGAQCEIDLNECNSNPCQSNGECVELSSEKQYGRITGLPSSFSYHEASGYVCICQPGFTGIHCEEDVNECSSNPCQNGGTCENLPGNYTCHCPFDNLSRTFYGGRDCSDILLGCTHQQCLNNGTCIPHFQDGQHGFSCLCPSGYTGSLCEIATTLSFEGDGFLWVKSGSVTTKGSVCNIALRFQTVQPMALLLFRSNRDVFVKLELLSGYIHLSIQVNNQSKVLLFISHNTSDGEWHFVEVIFAEAVTLTLIDDSCKEKCIAKAPTPLESDQSICAFQNSFLGGLPVGMTSNGVALLNFYNMPSTPSFVGCLQDIKIDWNHITLENISSGSSLNVKAGCVRKDWCESQPCQSRGRCINLWLSYQCDCHRPYEGPNCLREYVAGRFGQDDSTGYVIFTLDESYGDTISLSMFVRTLQPSGLLLALENSTYQYIRVWLERGRLAMLTPNSPKLVVKFVLNDGNVHLISLKIKPYKIELYQSSQNLGFISASTWKIEKGDVIYIGGLPDKQETELNGGFFKGCIQDVRLNNQNLEFFPNPTNNASLNPVLVNVTQGCAGDNSCKSNPCHNGGVCHSRWDDFSCSCPALTSGKACEEVQWCGFSPCPHGAQCQPVLQGFECIANAVFNGQSGQILFRSNGNITRELTNITFGFRTRDANVIILHAEKEPEFLNISIQDSRLFFQLQSGNSFYMLSLTSLQSVNDGTWHEVTLSMTDPLSQTSRWQMEVDNETPFVTSTIATGSLNFLKDNTDIYVGDRAIDNIKGLQGCLSTIEIGGIYLSYFENVHGFINKPQEEQFLKISTNSVVTGCLQLNVCNSNPCLHGGNCEDIYSSYHCSCPLGWSGKHCELNIDECFSNPCIHGNCSDRVAAYHCTCEPGYTGVNCEVDIDNCQSHQCANGATCISHTNGYSCLCFGNFTGKFCRQSRLPSTVCGNEKTNLTCYNGGNCTEFQTELKCMCRPGFTGEWCEKDIDECASDPCVNGGLCQDLLNKFQSLCDVAFAGERCEVDLADDLISDIFTTIGSVTVALLLILLLAIVASVVTSNKRATQGTYSPSRQEKEGSRVEMWNLMPPPAMERLI |
| 1 | Human canonical CRB1 (Crumbs homolog 1), P82279 p.C948Y (protein) FCNKNNTRCLSNSCQNNSTCKDFSKDNDCSCSDTANNLDKDCDNMKDPCFSNPCQGSATCVNTPGERSFLCKCPPGYSGTICETTIGSCGKNSCQHGGICHQDPIYPVCICPAGYAGRFCEIDHDECASSPCQNGAVCQDGIDGYSCFCVPGYQGRHCDLEVDECASDPCKNEATCLNEIGRYTCICPHNYSGVNCELEIDECWSQPCLNGATCQDALGAYFCDCAPGFLGDHCELNTDECASQPCLHGGLCVDGENRYSCNCTGSGFTGTHCETLMPLCWSKPCHNNATCEDSVDNYTCHCWPGYTGAQCEIDLNECNSNPCQSNGECVELSSEKQYGRITGLPSSFSYHEASGYVCICQPGFTGIHCEEDVNECSSNPCQNGGTCENLPGNYTCHCPFDNLSRTFYGGRDCSDILLGCTHQQCLNNGTCIPHFQDGQHGFSCLCPSGYTGSLCEIATTLSFEGDGFLWVKSGSVTTKGSVCNIALRFQTVQPMALLLFRSNRDVFVKLELLSGYIHLSIQVNNQSKVLLFISHNTSDGEWHFVEVIFAEAVTLTLIDDSCKEKCIAKAPTPLESDQSICAFQNSFLGGLPVGMTSNGVALLNFYNMPSTPSFVGCLQDIKIDWNHITLENISSGSSLNVKAGCVRKDWCESQPCQSRGRCINLWLSYQCDCHRPYEGPNCLREYVAGRFGQDDSTGYVIFTLDESYGDTISLSMFVRTLQPSGLLLALENSTYQYIRVWLERGRLAMLTPNSPKLVVKFVLNDGNVHLISLKIKPYKIELYQSSQNLGFISASTWKIEKGDVIYIGGLPDKQETELNGGFFKGCIQDVRLNNQNLEFFPNPTNNASLNPVLVNVTQGCAGDNSCKSNPCHNGGVCHSRWDDFSCSCPALTSGKACEEVQWCGFSPCPHGAQCQPVLQGFEYIANAVFNGQSGQILFRSNGNITRELTNITFGFRTRDANVIILHAEKEPEFLNISIQDSRLFFQLQSGNSFYMLSLTSLQSVNDGTWHEVTLSMTDPLSQTSRWQMEVDNETPFVTSTIATGSLNFLKDNTDIYVGDRAIDNIKGLQGCLSTIEIGGIYLSYFENVHGFINKPQEEQFLKISTNSVVTGCLQLNVCNSNPCLHGGNCEDIYSSYHCSCPLGWSGKHCELNIDECFSNPCIHGNCSDRVAAYHCTCEPGYTGVNCEVDIDNCQSHQCANGATCISHTNGYSCLCFGNFTGKFCRQSRLPSTVCGNEKTNLTCYNGGNCTEFQTELKCMCRPGFTGEWCEKDIDECASDPCVNGGLCQDLLNKFQCLCDVAFAGERCEVDLADDLISDIFTTIGSVTVALLLILLLAIVASVVTSNKRATQGTYSPSRQEKEGSRVEMWNLMPPPAMERLI |
